Where “and” joins values, the source holds several entries; their conditions need not be identical. Identical values can stand only once. Like-named read-outs stand apart in the source and are kept apart here.
Tests used:
[1] = target: human FcRn (human) (UniProt P55899); assay: MSD
[2] = target: human FcγRIIIa (F158 allele) (human) (UniProt P08637); assay: MSD
[3] = target: human FcγRIIIa (V158 allele) (human) (UniProt P08637); assay: MSD
[4] = target: human FcγRIIIb (human) (UniProt O75015); assay: MSD
Sequence of human FcγRIIIb (human) (O75015 17-200 limits assumed): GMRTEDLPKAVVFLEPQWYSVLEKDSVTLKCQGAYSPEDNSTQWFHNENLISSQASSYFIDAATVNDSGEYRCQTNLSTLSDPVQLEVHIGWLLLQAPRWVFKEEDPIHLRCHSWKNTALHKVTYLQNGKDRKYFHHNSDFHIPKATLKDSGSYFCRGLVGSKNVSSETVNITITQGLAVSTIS

[5] = target: human FcγRIIa (H131 allele) (human) (UniProt P12318); assay: MSD
Sequence of human FcγRIIa (H131 allele) (human) (P12318 34-218 limits assumed): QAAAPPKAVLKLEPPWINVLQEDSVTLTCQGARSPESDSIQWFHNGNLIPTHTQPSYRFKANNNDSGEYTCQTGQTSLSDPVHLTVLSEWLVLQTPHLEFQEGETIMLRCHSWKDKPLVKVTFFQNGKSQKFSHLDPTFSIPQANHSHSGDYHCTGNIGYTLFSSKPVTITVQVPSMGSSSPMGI

[6] = target: human FcγRIIa (R131 allele) (human) (UniProt P12318); assay: MSD
Sequence of human FcγRIIa (R131 allele) (human) (P12318 34-218 H167R limits assumed): as the sequence (P12318 34-218 limits assumed) above, with H134R counted along it

[7] = target: human FcγRIIb (human) (UniProt P31994); assay: MSD
Sequence of human FcγRIIb (human) (P31994 43-217 limits assumed): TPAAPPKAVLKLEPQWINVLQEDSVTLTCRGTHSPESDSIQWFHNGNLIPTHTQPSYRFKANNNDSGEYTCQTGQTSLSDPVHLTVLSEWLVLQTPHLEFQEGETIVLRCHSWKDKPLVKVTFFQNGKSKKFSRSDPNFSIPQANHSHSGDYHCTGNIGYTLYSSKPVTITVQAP

[8] = target: human C1q (human) (UniProt P02745); assay: MSD
Sequence of human C1q (human) (P02745 23-245 limits assumed, chain 1 of 3): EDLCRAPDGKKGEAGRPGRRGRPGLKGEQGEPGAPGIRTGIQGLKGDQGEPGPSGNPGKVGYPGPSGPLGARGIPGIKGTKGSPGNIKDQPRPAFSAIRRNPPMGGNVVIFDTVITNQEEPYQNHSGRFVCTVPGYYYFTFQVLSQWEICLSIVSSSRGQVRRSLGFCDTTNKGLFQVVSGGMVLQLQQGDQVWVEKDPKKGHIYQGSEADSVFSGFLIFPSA
Sequence of human C1q (human) (P02746 28-253 limits assumed, chain 2 of 3, further chain): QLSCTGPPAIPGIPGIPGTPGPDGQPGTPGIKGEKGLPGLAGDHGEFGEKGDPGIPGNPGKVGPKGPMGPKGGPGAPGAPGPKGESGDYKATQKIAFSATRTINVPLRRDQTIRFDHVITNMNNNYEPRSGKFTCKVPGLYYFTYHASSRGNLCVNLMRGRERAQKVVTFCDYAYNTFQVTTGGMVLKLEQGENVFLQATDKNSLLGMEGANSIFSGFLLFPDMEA
Sequence of human C1q (human) (P02747 29-245 limits assumed, chain 3 of 3, further chain): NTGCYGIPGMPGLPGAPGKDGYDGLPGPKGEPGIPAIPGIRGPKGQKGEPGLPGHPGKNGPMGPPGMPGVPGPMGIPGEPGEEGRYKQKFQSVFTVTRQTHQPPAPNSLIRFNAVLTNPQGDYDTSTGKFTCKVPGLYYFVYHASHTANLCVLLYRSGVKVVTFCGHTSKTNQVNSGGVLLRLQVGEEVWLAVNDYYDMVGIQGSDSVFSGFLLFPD

[9] = target: human FcγRIIIa (F158 allele) (human) (UniProt P08637)
[10] = target: human FcγRIIIa (V158 allele) (human) (UniProt P08637)
[11] = target: human FcγRIIa (H131 allele) (human) (UniProt P12318)
[12] = target: human FcγRIIb (human) (UniProt P31994)
[13] = target: human C1q (human) (UniProt P02745); assay: MSD [cont'd]
[14] = target: human FcRn (human) (UniProt P55899); assay: MSD [cont'd]
[15] = target: human FcγRIIb (human) (UniProt P31994); assay: MSD electrochemiluminescence binding assay; column IIB
[16] = target: human FcRn (human) (UniProt P55899); assay: MSD electrochemiluminescence binding assay; column FcRn
[17] = target: human FcγRIIIb (human) (UniProt O75015); assay: MSD electrochemiluminescence binding assay; column IIIB
[18] = target: human FcγRIIa (H131 allele) (human) (UniProt P12318); assay: MSD electrochemiluminescence binding assay; column IIA_H
[19] = target: human FcγRIIa (R131 allele) (human) (UniProt P12318); assay: MSD electrochemiluminescence binding assay; column IIA_R
[20] = target: human FcγRIIIa (F158 allele) (human) (UniProt P08637); assay: MSD electrochemiluminescence binding assay; column IIIA_F
[21] = target: human FcγRIIIa (V158 allele) (human) (UniProt P08637); assay: MSD electrochemiluminescence binding assay; column IIIA_V
[22] = target: human C1q (human) (UniProt P02745); assay: MSD [cont'd]; remark: listed apart in the source
[23] = target: human FcγRIIIa (F158 allele) (human) (UniProt P08637); assay: MSD [cont'd]
[24] = target: human FcRn (human) (UniProt P55899); assay: MSD, pH 6 [cont'd]
[25] = target: human FcγRIIIa (F158 allele) (human) (UniProt P08637); remark: listed apart in the source
[26] = target: human FcγRIIa (H131 allele) (human) (UniProt P12318); remark: listed apart in the source
[27] = target: human FcγRIIb (human) (UniProt P31994); remark: listed apart in the source

Sequence of human FcRn (human) (P55899 24-297 limits assumed, chain 1 of 2): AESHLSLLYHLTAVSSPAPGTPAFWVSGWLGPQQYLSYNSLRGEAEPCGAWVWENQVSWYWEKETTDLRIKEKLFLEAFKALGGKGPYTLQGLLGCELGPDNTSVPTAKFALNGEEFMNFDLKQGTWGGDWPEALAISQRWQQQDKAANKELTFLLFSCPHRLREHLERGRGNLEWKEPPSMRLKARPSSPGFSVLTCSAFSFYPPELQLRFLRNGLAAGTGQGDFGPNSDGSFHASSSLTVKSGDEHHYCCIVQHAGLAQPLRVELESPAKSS
Sequence of human FcRn (human) (chain, as listed by the source limits assumed, chain 2 of 2): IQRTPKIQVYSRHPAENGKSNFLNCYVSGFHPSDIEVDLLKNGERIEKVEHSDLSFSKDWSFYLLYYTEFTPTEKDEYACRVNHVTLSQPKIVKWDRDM
Sequence of human FcγRIIIa (V158 allele) (human) (P08637 17-208 F176V limits assumed): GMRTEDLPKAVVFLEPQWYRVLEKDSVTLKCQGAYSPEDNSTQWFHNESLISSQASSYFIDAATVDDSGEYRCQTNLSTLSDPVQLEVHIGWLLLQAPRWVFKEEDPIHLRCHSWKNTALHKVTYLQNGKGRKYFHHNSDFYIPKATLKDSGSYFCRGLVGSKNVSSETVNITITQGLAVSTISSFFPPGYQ
Sequence of human FcγRIIIa (F158 allele) (human) (P08637 17-208 limits assumed): as the sequence (P08637 17-208 F176V limits assumed) above, with V160F counted along it

## GRLR (Fc-LS) (antibody)
[1]
  fold-change vs FY1 rIgG1m3-MLNS: 0.69 fold
[2]
  fold-change vs FY1 rIgG1m3-MLNS: 0.25 fold
[3]
  fold-change vs FY1 rIgG1m3-MLNS: 0.08 fold
[4]
  fold-change vs FY1 rIgG1m3-MLNS: 0.7 fold
[5]
  fold-change vs FY1 rIgG1m3-MLNS: 0.28 fold
[6]
  fold-change vs FY1 rIgG1m3-MLNS: 0.38 fold
[7]
  fold-change vs FY1 rIgG1m3-MLNS: 0.38 fold

## IgG1 antibody with Fc variant G236A (afucosylated)
[8]
  fold-change (reference not given): 0.16 fold
[2]
  fold-change (reference not given): 17.2 fold and 35.6 fold
[3]
  fold-change (reference not given): 6.7 fold
[4]
  fold-change (reference not given): 2.1 fold and 1.8 fold
[5]
  fold-change (reference not given): 5.4 fold and 9.5 fold
[6]
  fold-change (reference not given): 6.1 fold and 9.9 fold
[7]
  fold-change (reference not given): 0.6 fold and 1.1 fold

## IgG1 antibody with Fc variant G236A_K334A_Q295E
[9]
  FcγR reporter signaling, fold-change vs wt [cont'd]: 0.23 fold
[10]
  FcγR reporter signaling, fold-change vs wt [cont'd]: 0.36 fold
[11]
  FcγR reporter signaling, fold-change vs wt [cont'd]: 2.13 fold
[12]
  FcγR reporter signaling, fold-change vs wt [cont'd]: 0.8 fold
[2]
  fold-change vs wt: 0.74 fold
[3]
  fold-change vs wt: 0.27 fold
[4]
  fold-change vs wt: 0.72 fold
[5]
  fold-change vs wt: 4.96 fold
[6]
  fold-change vs wt: 2.92 fold
[7]
  fold-change vs wt: 0.67 fold
[13]
  fold-change vs wt: 0.9 fold
[14]
  fold-change vs wt: 1.02 fold
[15]
  fold-change in binding vs wild-type IgG1: 0.4
[16]
  fold-change in binding vs wild-type IgG1: 1.02
[17]
  fold-change in binding vs wild-type IgG1: 0.72
[18]
  fold-change in binding vs wild-type IgG1: 5.01
[19]
  fold-change in binding vs wild-type IgG1: 2.88
[20]
  fold-change in binding vs wild-type IgG1: 0.74
[21]
  fold-change in binding vs wild-type IgG1: 0.27

## IgG1 antibody with Fc variant G236A_P230A_Q295E
[9]
  FcγR reporter signaling, fold-change vs wt [cont'd]: 0.02 fold
[10]
  FcγR reporter signaling, fold-change vs wt [cont'd]: 0.06 fold
[11]
  FcγR reporter signaling, fold-change vs wt [cont'd]: 2.29 fold
[12]
  FcγR reporter signaling, fold-change vs wt [cont'd]: 0.56 fold
[2]
  fold-change vs wt: 0.48 fold
[3]
  fold-change vs wt: 0.31 fold
[4]
  fold-change vs wt: 0.72 fold
[5]
  fold-change vs wt: 7.67 fold
[6]
  fold-change vs wt: 4.57 fold
[7]
  fold-change vs wt: 0.54 fold
[13]
  fold-change vs wt: 0.3 fold
[14]
  fold-change vs wt: 0.93 fold
[15]
  fold-change in binding vs wild-type IgG1: 0.48
[16]
  fold-change in binding vs wild-type IgG1: 0.93
[17]
  fold-change in binding vs wild-type IgG1: 0.72
[18]
  fold-change in binding vs wild-type IgG1: 7.59
[19]
  fold-change in binding vs wild-type IgG1: 4.57
[20]
  fold-change in binding vs wild-type IgG1: 0.48
[21]
  fold-change in binding vs wild-type IgG1: 0.31

## IgG1 antibody with Fc variant G236A_Y300L
[8]
  fold-change vs FY1 rIgG1m3: 0.98 fold
[2]
  fold-change vs FY1 rIgG1m3: 1 fold
[3]
  fold-change vs FY1 rIgG1m3: 0.9 fold
[4]
  fold-change vs FY1 rIgG1m3: 0.97 fold
[5]
  fold-change vs FY1 rIgG1m3: 18.2 fold
[6]
  fold-change vs FY1 rIgG1m3: 4.6 fold
[7]
  fold-change vs FY1 rIgG1m3: 1.1 fold

## IgG1 antibody with Fc variant G236S_R292P_Y300L
[9]
  FcγR reporter signaling, fold-change vs wt [cont'd]: 1.52 fold
[10]
  FcγR reporter signaling, fold-change vs wt [cont'd]: 1.32 fold
[11]
  FcγR reporter signaling, fold-change vs wt [cont'd]: 2.24 fold
[12]
  FcγR reporter signaling, fold-change vs wt [cont'd]: 0.93 fold
[2]
  fold-change vs wt: 1.06 fold
[3]
  fold-change to WT Fc: 0.753 fold
  fold-change vs wt: 0.75 fold
[4]
  fold-change vs wt: 1.04 fold
[5]
  fold-change to WT Fc: 10.9 fold
  fold-change vs wt: 10.8 fold
[6]
  fold-change to WT Fc: 1.34 fold
  fold-change vs wt: 1.34 fold
[7]
  fold-change to WT Fc: 0.817 fold
  fold-change vs wt: 0.82 fold
[22]
  fold-change vs wt: 1.96 fold
[13]
  fold-change to WT Fc: 1.98 fold
  fold-change vs wt: 1.98 fold
[14]
  fold-change vs wt: 0.87 fold
[23]
  fold-change to WT Fc: 1.06 fold
[24]
  fold-change to WT Fc: 0.87 fold

## L309T_P238D_P396L_T366A (antibody)
[25]
  FcγR reporter signaling, fold-change vs wt [cont'd]: 0.05 fold
[26]
  FcγR reporter signaling, fold-change vs wt [cont'd]: 0.04 fold
[27]
  FcγR reporter signaling, fold-change vs wt [cont'd]: 0.91 fold
